What was measured:
[1] = Comparison of molecular size by size exclusion chromatography in DPBS; assay type: physicochemical; details: SEC, DPBS buffer
Method: Size exclusion chromatography was performed to indirectly predict the molecular size of subcutaneously injected insulin formulation and its size change according to natural dilution (Havelund et al., 2004). The representative commercial long-acting insulin formulations, Levemir and Lantus, were used as a control group to examine the relative molecular size of the cobalt PEG-insulin hexamer. Chromatography was performed according to the conditions described in Example 4, except that DPBS was used as a buffer solution to create subcutaneous environment.

[2] = Measurement of hydrodynamic volume by size exclusion chromatography; assay type: physicochemical; details: for Hydrodynamic volume: SEC Superdex 200 10/300 GL, regression line from standard proteins; for Hydrodynamic volume, times larger than monomer: hexamer versus monomer
Method: PEG-insulin conjugates in 20 mM HEPES buffer (pH 8.2) were mixed with a cobalt chloride solution to a ratio of cobalt to hexamer of 3:1. To convert divalent cobalt ions into trivalent cobalt ions, hydrogen peroxide corresponding to twice of the total divalent cobalt ions was added, and left at room temperature for 2 h. Thereafter, cobalt PEG-insulin hexamers were isolated by SEC (size exclusion chromatography).
Column: Superdex 200 16/60 prep grade (GE Healthcare)
Buffer: 20 mM HEPES pH 8.2+0.2 M NaCl
Hydrodynamic volume of the PEG-insulin conjugate or the cobalt PEG-insulin hexamer was measured according to the conditions described in Example 4, except that Superdex 200 10/300 GL was used as a column. The regression line was calculated from the elution volume of standard protein. Partition coefficient (Kav) is defined as follows. Kav=(Ve−V0)/(Vt−V0)
Ve represents the elution volume, V0 represents the void volume determined by Blue dextran, and Vt represents the bed volume.

[3] = test system: murine fibroblast 3T3-L1 differentiated into adipocyte; experiment: In vitro efficacy test: residual sugar in media of differentiated 3T3-L1 adipocytes; assay type: cell-based; details: for EC50: differentiated 3T3-L1 adipocytes, 37° C. for 24 h, residual sugar by D-Glucose assay kit
Method: In order to differentiate murine fibroblast 3T3-L1 into adipocyte, the cell was inoculated in a 48-well plate containing a 10% FBS/DMEM media containing dexamethasone, IBMX, and insulin at a cell density of 1.0×10^5 per well. The differentiated cells were washed with DPBS three times, and cultured in a serum-free DMEM for 4 h. […] After cultivation at 37° C. for 24 h, the residual sugar concentration in the media was measured using a D-Glucose assay kit (Megazyme), and EC50 values were calculated and shown in Table 1.

[4] = after subcutaneous injection; time for half of the drug to pass the capillary wall; cited from earlier work

| Substance | Dissociation coefficient (Kav) [1] | Elution time [1] | Hydrodynamic volume [2] | Hydrodynamic volume, times larger than monomer [2] | EC50 [3] | Relative activity ([3]; relative to human native insulin (100)) | Subcutaneous half-life, times longer than native insulin hexamer [4] |
| --- | --- | --- | --- | --- | --- | --- | --- |
| Cobalt PEG (5k)-insulin hexamer: hexamer of PEG (5k)-insulin conjugates complexed with trivalent cobalt ions | 0.20 | 27.63 min | 300 kDa | approximately 5 times | – | – | – |
| Cobalt PEG (20k)-insulin hexamer: hexamer of PEG (20k)-insulin conjugates complexed with trivalent cobalt ions | 0.01 | 20.12 min | 1,600 kDa | approximately 10 times | – | – | – |
| PEG (5k)-insulin: human native insulin mono-PEGylated with 5 k mPEG-aldehyde at the amino terminus of the B chain | – | – | 60 kDa | – | 9.48 ± 2.77 nM | 60% | – |
| PEG (20k)-insulin: human native insulin mono-PEGylated with 20 k mPEG-aldehyde at the amino terminus of the B chain | – | – | – | – | 13.6 ± 0.71 nM | – | – |
| insulin detemir | – | – | – | – | – | – | 4 times |
